Results published in patent US20220153864A1 (Pieris, published 2022).

Tests used:
[1] = biological target: T1, human GPC3 expressed on cells (SK-Hep1::huGPC3; HepG2, Hep3B and MKN-45 tumor cells) (human, UniProt P51654 25-554); assay: flow cytometry on Hep3B tumor cells (GPC3 positive)
T1 construct: whole, on cells; also called GPC3-positive tumor cells; human GPC3-expressing cells
Method: 5×10⁴ cells per well were incubated for 1 h in ice-cold PBS containing 5% fetal calf serum (PBS-FCS). A dilution series of the testing molecule were added to the cells and incubated for 1 h on ice. Cells were washed twice with PBS and then incubated with a goat anti-hlgG Alexa647-labeled antibody or goat anti-hlgG Alexa488-labeled antibody for 30 min on ice. Cells were subsequently washed and analyzed using iQue Flow cytometer (Intellicyte Screener). Mean geometric fluorescent signals were plotted and fitted with Graphpad software. The geometric means of the fluorescence intensity were used to calculate EC₅₀ values using a four-parameter logistic regression with bottom fixed to background.
For flow cytometric analysis, tumor cell lines with different GPC3 expression levels (high to moderate expression: HepG2>Hep3B>MKN-45) and GPC3 negative cell line NCI-N87 were incubated with an exemplary fusion protein SEQ ID NOs: 87 and 82, the GPC3 antibody or the CD137 specific lipocalin mutein (Fc fusion) as included in the fusion protein (SEQ ID NOs: 81 and 82 and SEQ ID NO: 98, respectively), a reference CD137 antibody SEQ ID NOs: 26 and 27, or an isotype control (SEQ ID NO: 24 and 25), and detected using a fluorescently labeled anti-human IgG antibody as described in Example 6.

[2] = biological target: T2, recombinant human GPC3 (huGPC3) (R&D Systems) (human, UniProt P51654 25-559); assay: dual-binding ELISA: huGPC3 coated, fusion titrated, detection with biotinylated huCD137-His
T2 construct: also called biotinylated huGPC3
Method: Recombinant huCD137-His (R&D Systems) in PBS (1 μg/mL) was coated overnight on microtiter plates at 4° C. The plates were washed five times after each incubation step with 100 μL PBS-0.05% T. The plates were blocked with PBS-0.1% T-2% BSA for 1 h at room temperature and subsequently washed again. Different concentrations of tested fusion proteins were added to the wells and incubated for 1 h at room temperature, followed by a wash step. Subsequently, biotinylated huGPC3 was added at a constant concentration of 1 μg/mL in PBS-0.1% T-2% BSA for 1 h. After washing, a 1:5000 dilution of ExtrAvidin-HRP (Sigma-Aldrich) in PBS-0.1% T-2% BSA was added to the wells and incubated for 1 h. After an additional wash step, fluorogenic HRP substrate (QuantaBlu, Thermo) was added to each well, and the fluorescence intensity was detected using a fluorescence microplate reader.
The dual binding of fusion proteins was also tested with a reverse set-up where recombinant huGPC3 (R&D Systems) was coated on microtiter plates at 1 μg/ml and the bound fusion proteins were detected via the addition of 5 μg/mL biotinylated huCD137-His.
Exemplary dual binding data are shown in FIG. 3, together with the fit curves resulting from a 1:1 sigmoidal binding fit, where the EC₅₀ value and the maximum signal were free parameters, and the slope was fixed to unity.

T2 sequence (P51654 25-559 limits assumed): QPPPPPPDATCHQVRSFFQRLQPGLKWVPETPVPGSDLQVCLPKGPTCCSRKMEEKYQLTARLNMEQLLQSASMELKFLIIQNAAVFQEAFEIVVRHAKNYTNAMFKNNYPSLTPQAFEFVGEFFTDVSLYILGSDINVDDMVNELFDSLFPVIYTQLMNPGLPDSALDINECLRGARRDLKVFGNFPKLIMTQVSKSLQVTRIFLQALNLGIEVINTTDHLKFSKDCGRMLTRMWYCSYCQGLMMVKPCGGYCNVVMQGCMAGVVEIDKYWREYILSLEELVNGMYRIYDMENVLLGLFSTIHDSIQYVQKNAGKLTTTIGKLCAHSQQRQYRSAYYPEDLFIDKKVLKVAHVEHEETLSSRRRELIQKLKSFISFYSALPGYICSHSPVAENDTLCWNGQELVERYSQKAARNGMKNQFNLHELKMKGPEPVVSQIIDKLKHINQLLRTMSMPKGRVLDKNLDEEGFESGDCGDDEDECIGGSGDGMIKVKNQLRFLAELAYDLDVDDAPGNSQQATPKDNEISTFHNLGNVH
T1 sequence (P51654 25-554 limits assumed): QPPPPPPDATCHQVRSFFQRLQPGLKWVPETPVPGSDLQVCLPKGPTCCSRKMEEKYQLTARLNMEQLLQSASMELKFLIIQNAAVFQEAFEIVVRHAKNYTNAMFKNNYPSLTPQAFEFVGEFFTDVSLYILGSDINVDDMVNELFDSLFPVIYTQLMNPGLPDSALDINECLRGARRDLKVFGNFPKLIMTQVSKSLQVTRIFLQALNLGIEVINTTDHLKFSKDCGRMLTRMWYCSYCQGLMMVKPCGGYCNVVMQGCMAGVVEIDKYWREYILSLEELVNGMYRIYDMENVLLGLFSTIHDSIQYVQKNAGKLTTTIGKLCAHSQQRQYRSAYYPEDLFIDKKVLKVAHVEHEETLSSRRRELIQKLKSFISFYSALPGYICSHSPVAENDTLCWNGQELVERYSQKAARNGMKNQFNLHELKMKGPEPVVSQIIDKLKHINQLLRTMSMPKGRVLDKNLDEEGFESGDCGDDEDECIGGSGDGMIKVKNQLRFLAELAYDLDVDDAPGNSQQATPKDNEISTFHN

B1: fusion protein SEQ ID NOs: 87 and 82 (bispecific antibody, human IgG4 S228P, kappa, F234A L235A)
heavy: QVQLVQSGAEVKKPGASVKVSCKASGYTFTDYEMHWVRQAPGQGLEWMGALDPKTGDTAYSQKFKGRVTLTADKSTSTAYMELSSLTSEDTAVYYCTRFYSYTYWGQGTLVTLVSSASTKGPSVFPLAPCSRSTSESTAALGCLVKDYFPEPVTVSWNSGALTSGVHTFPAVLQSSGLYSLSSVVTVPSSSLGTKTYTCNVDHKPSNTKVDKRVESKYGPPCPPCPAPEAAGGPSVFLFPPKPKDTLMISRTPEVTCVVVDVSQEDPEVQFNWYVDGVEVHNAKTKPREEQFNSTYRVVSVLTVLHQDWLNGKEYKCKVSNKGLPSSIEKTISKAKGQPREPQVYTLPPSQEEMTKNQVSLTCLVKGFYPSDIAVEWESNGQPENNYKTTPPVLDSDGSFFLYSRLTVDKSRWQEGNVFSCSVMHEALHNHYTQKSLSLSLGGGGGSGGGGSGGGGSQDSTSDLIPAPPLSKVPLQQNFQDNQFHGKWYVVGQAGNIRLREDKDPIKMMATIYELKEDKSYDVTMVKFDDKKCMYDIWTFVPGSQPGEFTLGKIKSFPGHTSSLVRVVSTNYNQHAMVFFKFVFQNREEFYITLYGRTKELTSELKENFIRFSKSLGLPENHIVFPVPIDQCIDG
light: DVVMTQSPLSLPVTPGEPASISCRSSQSLVHSNRNTYLHWYLQKPGQSPQLLIYKVSNRFSGVPDRFSGSGSGTDFTLKISRVEAEDVGVYYCSQNTHVPPTFGQGTKLEIKRTVAAPSVFIFPPSDEQLKSGTASVVCLLNNFYPREAKVQWKVDNALQSGNSQESVTEQDSKDSTYSLSSTLTLSKADYEKHKVYACEVTHQGLSSPVTKSFNRGEC
notes: also called exemplary fusion protein
For B1, which EC50 [1] is on record?
Its EC50 is 7.92 nM.

What about the EC50 [2] of the same binder?
The EC50 was 0.98 nM.
